From PMC10782996 come the findings set out here.

The subject of data set [1] is T1, Spo0A (Paenibacillus polymyxa SC2), ORF:894240d5.
T1 sequence: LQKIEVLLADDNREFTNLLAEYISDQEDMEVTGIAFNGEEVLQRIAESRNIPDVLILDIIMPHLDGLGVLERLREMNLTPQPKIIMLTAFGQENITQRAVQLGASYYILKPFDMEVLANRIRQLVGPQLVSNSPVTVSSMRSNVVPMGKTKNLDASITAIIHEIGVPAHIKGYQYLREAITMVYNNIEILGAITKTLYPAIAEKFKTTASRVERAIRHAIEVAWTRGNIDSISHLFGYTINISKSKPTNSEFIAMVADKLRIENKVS
The data set can be described thus: EMSA. The following applies: EMSA: Beyotime chemiluminescent EMSA kit buffer (composition and pH not stated), 10 uL, 20 min at room temperature, native PAGE in 0.5x TBE, 70 V for 70 min …. A general note: A gel shift assay detects complexes by their altered migration in electrophoresis.

The subject of data set [2] is T2, AbrB3 (Paenibacillus polymyxa SC2), ORF:7049d318.
T2 sequence: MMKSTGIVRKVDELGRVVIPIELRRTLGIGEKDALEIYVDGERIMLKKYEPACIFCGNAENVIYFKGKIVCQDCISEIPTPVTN
The data set can be described thus: EMSA. The following applies: EMSA: Beyotime chemiluminescent EMSA kit buffer (composition and pH not stated), 10 uL, 20 min at room temperature, native PAGE in 0.5x TBE, 70 V for 70 min ….

For the sequence “ATGTAATTCACAGCCCCTTAACGTATATTACTAAAAATTTCTTTGCCAACTAGAATATTGATTCTGAATATATATCGGCAATCCCCTATAATTCCTCAACACGTTTTCCACCATTAAACAAACATATTATGGGAATTACTTGTATACTTTTCAACAGTTTACTTAATATATGCGATTGCTTCTCTAAGCCTATTCTTTTTTATCATAATTATTTAGTATTATAAGGATATAAAAAAGGAGGTTATCAT (double strand) [Pabh]”, the binding result in data set [1] and in data set [2] was “binds” each time.
“TGTACTTCCTCCTTATTGAGTGTTATTCCATTGGGACATCTGTTTGCATTAAATAAATATTTCTTGTCGGAGTATATGATTTCGACATCGAATTATGAATTCCTTCTGTCGAAAATTATTTTTATTTATTTTTTTTATTAATTCAATTATAATTGAATTTTTATCTTGCAATTCTGAGTTATTCCCCTGCTTTTCGACAAAAAAATCTTAAGGCCA (double strand) [Pspo0A]”: the binding result in data set [1] is “binds”.
